Data from US20230183336A1 (MODMAB THERAPEUTICS, published 2023).

Molecular target: T1, recombinant mouse LRP6-His chimera (mouse, UniProt O88572 20-1370)
T1 construct: extracellular domain; also called ECD of mouse LRP6; not shown: His tag
T1 sequence (looked up): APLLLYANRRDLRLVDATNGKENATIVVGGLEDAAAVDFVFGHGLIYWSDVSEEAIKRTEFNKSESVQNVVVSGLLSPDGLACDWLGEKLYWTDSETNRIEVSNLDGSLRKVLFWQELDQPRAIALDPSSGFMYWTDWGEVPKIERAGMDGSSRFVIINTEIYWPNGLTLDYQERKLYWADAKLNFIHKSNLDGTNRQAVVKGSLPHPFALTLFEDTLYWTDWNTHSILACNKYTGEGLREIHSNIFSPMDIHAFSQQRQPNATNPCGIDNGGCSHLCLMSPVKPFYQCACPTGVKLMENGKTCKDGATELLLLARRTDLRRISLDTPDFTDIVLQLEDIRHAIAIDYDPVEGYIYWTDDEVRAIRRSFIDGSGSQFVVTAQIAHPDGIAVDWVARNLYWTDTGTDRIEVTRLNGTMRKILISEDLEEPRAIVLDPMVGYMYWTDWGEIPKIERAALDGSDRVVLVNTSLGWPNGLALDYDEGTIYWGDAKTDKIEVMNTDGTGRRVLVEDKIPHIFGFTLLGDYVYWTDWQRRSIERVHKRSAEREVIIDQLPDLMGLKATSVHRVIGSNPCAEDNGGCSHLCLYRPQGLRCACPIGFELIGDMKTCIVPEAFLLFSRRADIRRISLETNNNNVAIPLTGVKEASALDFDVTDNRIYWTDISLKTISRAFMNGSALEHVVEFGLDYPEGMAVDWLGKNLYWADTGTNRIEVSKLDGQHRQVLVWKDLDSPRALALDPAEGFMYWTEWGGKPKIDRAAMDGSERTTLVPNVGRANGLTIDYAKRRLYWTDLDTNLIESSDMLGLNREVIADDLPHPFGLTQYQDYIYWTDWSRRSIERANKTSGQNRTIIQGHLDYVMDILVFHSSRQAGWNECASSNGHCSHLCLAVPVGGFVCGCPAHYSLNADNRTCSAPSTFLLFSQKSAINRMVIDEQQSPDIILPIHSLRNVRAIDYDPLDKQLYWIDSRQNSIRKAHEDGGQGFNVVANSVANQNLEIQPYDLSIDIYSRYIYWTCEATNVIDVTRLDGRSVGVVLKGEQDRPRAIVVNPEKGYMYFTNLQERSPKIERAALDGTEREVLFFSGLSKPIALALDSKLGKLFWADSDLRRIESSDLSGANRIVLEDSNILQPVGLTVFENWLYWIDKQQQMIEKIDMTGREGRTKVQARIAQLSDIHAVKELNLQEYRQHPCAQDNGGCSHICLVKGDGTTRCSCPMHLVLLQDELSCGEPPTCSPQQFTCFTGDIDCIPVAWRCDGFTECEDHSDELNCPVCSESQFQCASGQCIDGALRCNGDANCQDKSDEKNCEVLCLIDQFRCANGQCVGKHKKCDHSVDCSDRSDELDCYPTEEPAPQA
Test: single-point ELISA, coated antigen, purified Fab or IgG1, anti-kappa-HRP
Experimental: FIGS. 1A and 1B show sixteen (16) anti-LRP antibodies. (A) The amino acid sequences of the complementarity determining regions (CDR) of the heavy (H) and the light (L) chains are presented. The antibodies were grouped into unique epitopes as determined by competitive ELISAs. (B) Single-point ELISAs were performed on 96-well Maxisorb immune plates coated with ECD's of mouse LRP5, mouse LRP6 and human LRP6 chimeras. The plates were incubated with the purified Fab or IgG1 at the concentrations indicated followed by incubation with horseradish peroxidase (HRP)-conjugated anti-kappa antibody. The wells were washed eight times followed by incubation with 3,3′,5,5′-tetramethylbenzidine/H₂O₂ peroxidase (TMB) substrate for 5-10 min. The reaction was stopped by adding 1M H₃PO₄ and the absorbance was measured spectrometrically at 450 nm in a microtiter plate reader. FIG. 1A discloses “SSVA” as SEQ ID NO: 34, and “SASSLYS” as SEQ ID NO: 35, as well as SEQ ID NOS 36-49, 51, 44, 2-4, 4, 5-7, 5, 4, 5, 8-10, 4, 52, 55, 11-16, 15, 15, 13, 17-20, 13, 53, 56, 21-23, 22, 24-33, 54, 57, respectively, in order of columns.
The full length IgG1s and the antibody fragments (Fabs) were purified and a single-point ELISA was done to determine the specificity of the antibodies. […] A multipoint competitive ELISA was used to determine the relative affinities of the antibodies to the recombinant antigen.

B1: LRP5-H5 (antibody, V domains shown)
VH: EVQLVESGGGLVQPGGSLRLSCAASGFNLSYSSIHWVRQAPGKGLEWVASISSSYGSTSYADSVKGRFTISADTSKNTAYLQMNSLRAEDTAVYYCARGYWAIDYWGQGTLVTVSS
VL: DIQMTQSPSSLSASVGDRVTITCRASQSVSSAVAWYQQKPGKAPKLLIYSASSLYSGVPSRFSGSRSGTDFTLTISSLQPEDFATYYCQQPVGHYGYPITFGQGTKVEIKR
notes: Fab-phage in the screen
binding result: binds
